According to publication PMC10670289, “Characterization and Molecular Dynamics Simulation of a Lipase Capable of Improving the Functional Characteristics of an Egg-Yolk-Contaminated Liquid Egg White” (Foods, 2023):

Key:
Assay in all cases: purified protein
Type in all cases: biochemical, Bacillus subtilis
Details in all cases: 30 °C, pH 9.0
purified protein [1] = substrate: CCCCCCCC(=O)Oc1ccc([N+](=O)[O-])cc1
purified protein [2] = substrate: CCCCCCCCCCCCCCCC(=O)Oc1ccc([N+](=O)[O-])cc1
purified protein [3] = substrate: CCCCCCCCCC(=O)Oc1ccc([N+](=O)[O-])cc1
purified protein [4] = substrate: CCCCCCCCCCCCCC(=O)Oc1ccc([N+](=O)[O-])cc1
purified protein [5] = substrate: CCCCCCCCCCCCCCCCCC(=O)Oc1ccc([N+](=O)[O-])cc1
purified protein [6] = substrate: CCCCCC(=O)Oc1ccc([N+](=O)[O-])cc1
purified protein [7] = substrate: CCCCCCCCCCCC(=O)Oc1ccc([N+](=O)[O-])cc1

B1: Lip-IM (Bacillus subtilis subsp. subtilis str. 168) (protein)
chain: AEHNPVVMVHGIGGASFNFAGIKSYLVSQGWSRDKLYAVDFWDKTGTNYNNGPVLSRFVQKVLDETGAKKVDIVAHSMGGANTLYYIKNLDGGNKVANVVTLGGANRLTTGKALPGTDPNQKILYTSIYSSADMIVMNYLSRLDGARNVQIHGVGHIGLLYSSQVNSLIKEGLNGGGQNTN
notes: 22 kDa by SDS-PAGE
- Km (purified protein [1]): 4.21 ± 0.09 mM
- Vmax (purified protein [1]): 236 µM/min
- Km (purified protein [2]): 9.26 ± 0.09 mM
- Vmax (purified protein [2]): 150 µM/min
- Km (purified protein [3]): 5.23 ± 0.04 mM
- Vmax (purified protein [3]): 184 µM/min
- Km (purified protein [4]): 5.12 ± 0.09 mM
- Vmax (purified protein [4]): 214 µM/min
- Km (purified protein [5]): 6.26 ± 0.07 mM
- Vmax (purified protein [5]): 292 µM/min
- Km (purified protein [6]): 3.92 ± 0.06 mM
- Vmax (purified protein [6]): 233 µM/min
- Km (purified protein [7]): 5.96 ± 0.08 mM
- Vmax (purified protein [7]): 204 µM/min
